{"source": "the DeepSol protein solubility set", "assay": "soluble on expression in E. coli; label from the status in PepcDB or PDB records", "data": [{"sequence": "MRGSHHHHHHMSIITDVYAREVLDSRGNPTLEVEVYTESGAFGRGMVPSGASTGEHEAVELRDGDKSRYGGLGTQKAVDNVNNIIAEAIIGYDVRDQQAIDRAMIALDGTPNKGKLGANAILGVSIAVARAAADYLEIPLYSYLGGFNTKVLPTPMMNIINGGSHSDAPIAFQEFMILPVGAPTFKEALRYGAEIFHALKKILKSRGLETAVGDEGGFAPRFEGTEDGVETILAAIEAAGYVPGKDVFLGFDCASSEFYDKERKVYDYTKFEGEGAAVRTSAEQIDYLEELVNKYPIITIEDGMDENDWDGWKALTERLGKKVQLVGDDFFVTNTDYLARGIQEGAANSILIKVNQIGTLTETFEAIEMAKEAGYTAVVSHRSGETEDSTIADIAVATNAGQIKTGSLSRTDRIAKYNQLLRIEDQLGEVAEYRGLKSFYNLKK", "values": [{"measurement": "soluble on expression in E. coli", "result": "soluble"}]}, {"sequence": "GADGVGNASGDWHCDSTWSEGHVTTTSTRTWVLPTYNNHLYKRLGESLQSNTYNGFSTPWGYFDFNRFHCHFSPRDWQRLINNNWGMRPKAMRVKIFNIQVKEVTTSNGETTVANNLTSTVQIFADSSYELPYVMDAGQEGSLPPFPNDVFMVPQYGYCGLVTGNTSQQQTDRNAFYCLEYFPSQMLRTGNNFEITYSFEKVPFHSMYAHSQSLDRLMNPLIDQYLWGLQSTTTGTTLNAGTATTNFTKLRPTNFSNFKKNWLPGPSIKQQGFSKTANQNYKIPATGSDSLIKYETHSTLDGRWSALTPGPPMATAGPADSKFSNSQLIFAGPKQNGNTATVPGTLIFTSEEELAATNATDTDMWGNLPGGDQSNSNLPTVDRLTALGAVPGMVWQNRDIYYQGPIWAKIPHTDGHFHPSPLIGGFGLKHPPPQIFIKNTPVPANPATTFSSTPVNSFITQYSTGQVSVQIDWEIQKERSKRWNPEVQFTSNYGQQNSLLWAPDAAGKYTEPRAIGTRYLTHHL", "values": [{"measurement": "soluble on expression in E. coli", "result": "soluble"}]}, {"sequence": "MEEELRVRLNDHQVSKVFPVKPKSTANVVAVMEELVARRKLMKCVSNMEEGELGMLLGFLQRYCTVQRYSGLLMGLTKKVLETRAEDIKGKNEFKGLLRNLKREVNQEIRIQQSLLEIQGVIAPLMRIAGRS", "values": [{"measurement": "soluble on expression in E. coli", "result": "not soluble"}]}, {"sequence": "GPGSMAPAVIEIHIPLDRIRNEEYATDDLLLNCLSKIGDTPEEDGLPLRTWILREAHQALIKSPKLRTVLVKPQTVKDKPTHFQICFDE", "values": [{"measurement": "soluble on expression in E. coli", "result": "soluble"}]}, {"sequence": "MAFVLDASTAVAWCFDEHHPAADRTLELAKVSEPRAPAILWFELRNAALMGIRRGRVKAEAADGVLARIERIRISIAPLPPAADPIFALAQRHRLTFYDAAYLELAQRERIGLATLDAALVGA", "values": [{"measurement": "soluble on expression in E. coli", "result": "not soluble"}]}, {"sequence": "VGVGYFDTIEIKTILSLLQIIDNPMQDIPLISVLKSPIFGFTPEDLIDIRVQSKDKIFYEVLKSTAEYDGFTDSQNENESEFIPSEECINKSKDFLIKLKEFKEKSMYMSTDEFIWYLYTRTGYYAYVGALPGGSQRQANLKVLFERAKQFEETSLKGIFNFVNFIEKLKKSSSDMGSAKT", "values": [{"measurement": "soluble on expression in E. coli", "result": "soluble"}]}, {"sequence": "TTTVGLVCKDGVVMATEKRATMGNFIASKAAKKIYQIADRMAMTTAGSVGDAQFLARIIKIEANLYEIRRERKPTVRAIATLTSNLLNSYRYFPYLVQLLIGGIDSEGKSIYSIDPIGGAIEEKDIVATGSGSLTAYGVLEDRFTPEIGVDEAVELAVRAIYSAMKRDSASGDGIDVVKITEDEFYQYSPEEVEQILAKFRK", "values": [{"measurement": "soluble on expression in E. coli", "result": "soluble"}]}, {"sequence": "KRSKVLSQASKNAEQFEDKFWSGTDLSQLYQKVKGRKDEIAGTEEIFFAGFTEFARLRKSNANSPAYIMEGTGRAMRVAVAREVDELETS", "values": [{"measurement": "soluble on expression in E. coli", "result": "not soluble"}]}, {"sequence": "MRILGEKVRQFRKRKGMSQKELADGICTQATISLIEKKSKIPSMKIMMKICNRLGIRLSEVIIENDDQLYRTFKKIDTLIRHTQLEEAQDVFQHIRPKQLRSNTDKKQYYYYEGYLQLVLNDNADEAIFNFGMLLNQFVKSSHDMFAILATLGTGLAYERKQAYDKAEIFVKQAVATLHTMDAQAMPMGDDDYLQNEILIYASAAQLYAKINFPEEALELIDLALKKAQESQSLYLLDRLYAQKAANEVVLNNVQSAHDHYYVAYALSLVTHNSSLTEKITKEMAEYHIAPLQVANDA", "values": [{"measurement": "soluble on expression in E. coli", "result": "not soluble"}]}, {"sequence": "MTRVLVLGGGSGGLVAANKVKRLLGKEVEVTLVDRNTHHEFMPAYPWVAFGMREPEAIRRPLANLEKRGIRYLQATVEALDPERNRVKTTAGELSYDYLIVSLGAEALPSPAQDGHAPWSLEGALKLREALRTFKGGKVVVGVSSPYYPCPPAPYEVAGQVEFALKVKGVRDKSTVEVFHLNPAPLAGMGPVISGKVLEILKSKGIAFHGGFEPVEFAGGKVKAKDGRELSYDLLILTPPFAPNRVVRESPLAGPQGFPEVDRMTFRSPRFPNVFVIGDTVNPALMLPPAGVVAHFQGEYVAGVIASDLKGAYIGEPFNPVAMCIMDFGDNALLPQCAFDRVLAGTGMPSCGVMAVGKWVRVTKMLFEGFWFATLIELEHHHHHH", "values": [{"measurement": "soluble on expression in E. coli", "result": "soluble"}]}, {"sequence": "MGSDKIHHHHHHMGTVNRAVFLDRDGVINKDHGYVHQVDDFEYIEGVFEACLALKQQGYKLVVVTNQSGIARGMYTEDQFHSLTEWMDWNFADKGVDLDGIYYCPHHNEKGIGEYKVDCDCRKPKPGMLIDAAKFLKIDLSQSVMVGDKTDDMLAAKAAGVPTRILVRTGKAIADESDASVVLDSIADVPAFLKNHKAS", "values": [{"measurement": "soluble on expression in E. coli", "result": "not soluble"}]}, {"sequence": "MNIMLTGATGHLGTHITNQAIANHIDHFHIGVRNVEKVPDDWRGKVSVRQLDYFNQESMVEAFKGMDTVVFIPSIIHPSFKRIPEVENLVYAAKQSGVAHIIFIGYYADQHNNPFHMSPYFGYASRLLSTSGIDYTYVRMAMYMDPLKPYLPELMNMHKLIYPAGDGRINYITRNDIARGVIAIIKNPDTWGKRYLLSGYSYDMKELAAILSEASGTEIKYEPVSLETFAEMYDEPKGFGALLASMYHAGARGLLDQESNDFKQLVNDQPQTLQSFLQENILEHHHHHH", "values": [{"measurement": "soluble on expression in E. coli", "result": "soluble"}]}, {"sequence": "SRAYDLVVIGAGSGGLEAGWNAASLHKKRVAVIDLQKHHGPPHYAALGGTCVNVGCVPKKLMVTGANYMDTIRESAGFGWELDRESVRPNWKALIAAKNKAVSGINDSYEGMFADTEGLTFHQGFGALQDNHTVLVRESADPNSAVLETLDTEYILLATGSWPQHLGIEGDDLCITSNEAFYLDEAPKRALCVGGGYISIEFAGIFNAYKARGGQVDLAYRGDMILRGFDSELRKQLTEQLRANGINVRTHENPAKVTKNADGTRHVVFESGAEADYDVVMLAIGRVPRSQTLQLEKAGVEVAKNGAIKVDAYSKTNVDNIYAIGDVTDRVMLTPVAINEGAAFVDTVFANKPRATDHTKVACAVFSIPPMGVCGYVEEDAAKKYDQVAVYESSFTPLMHNISGSTYKKFMVRIVTNHADGEVLGVHMLGDSSPEIIQSVAICLKMGAKISDFYNTIGVHPTSAEELCSMRTPAYFYEKGKRVEKIDSNL", "values": [{"measurement": "soluble on expression in E. coli", "result": "soluble"}]}, {"sequence": "MSLTSSDVRNKYNFNSDWLLYVGDVPEAKQPRFSDSEWKKVTLPHAFNEDEAFRLSIDELTDTIMWYRKHFRLPANSKNKKVFVEFEGVRQGADFYINGQNVGLHENGVMAVGFDLTPYIKYGQENVIAVRIDNDWNYKERATGTKYQWSNKNFNANYGGIPKNVWLHVTDRLYQTLPLYSNLKTTGVYIYAEDIRVKSRKAIIHAESEIRNEYNRDKQVSYQVELIDRDGTSIQTFEGTKAVVKPGETITLKAASEVDNLHFWSWGYGYLYTVKTSLWVDGRKVDEVATRTGFRKTRFGKGMIWLNDRVIQMKGFAQRTSNEWPGVGMSVPAWLSDYSNHLMVEGNANLVRWMHVTPWKQDIESCDRVGLIQAMQAGDAEKDCEGRQWEQRTELMRDAIIYNRNNPSILFYECGNESISREHMIEMKAIRDLYDPHGGRAIGSREMLDIREAEYGGEMLYINKSAHHPMWAMEYCRDEGLRKYWDDYSYPYHKDGDGSNSYKSTVTNKVQKKVDARVYNRNQDSFTIENIIRWFDYWRERPGTGDRVSSGGVKIIFSDTNTHYRGVENYRRSGVTDAMRIPKDPFFAHQVMWDGWVDTECPRIYIVGHWNYNDTVVKPVYVVSSADKVELFLNGKSLGYGEQDYHFLYTFKDIAFVPGRLEAVGYDENGKECCRTQLQTAGKPEQIQLSFIQSPEGWKADGADMVLLQVEVMDKDGNRCPLANDLIHFEVEGPAEWRGGIAQGENNYILSKDLPVECGINRALIRSLTTAGNVRITAKADGLKPAEISLTSSPVEVKNGLSNYIPGDELEGRLTRGETPQTPSYKVSKVDVGIVSAIAGANNESTVNSFDDNELSEWRNDGKAATAWITYKLERAARVDEVCMKLTGWRMRSYPLEIYAGKELIWSGDTDKSLGYVHLDVKPVLTNEITIRLKGTSKEGDAFGQIVEVAAPVANELDLFKAKDGDKTGHELRIVEIEFKENLLKEGHHHHHH", "values": [{"measurement": "soluble on expression in E. coli", "result": "soluble"}]}, {"sequence": "MKNLEKCILCGSHNIVPHWKNVRSYNVSKCLDCSFLFLHEIIDDHELENYYSQSYFMASYAKTENNLIDAANNPKITAEAKEYANLIKLHHPEAHNVGEIGCSWGYLLYNLQNFGYSAKGFELSKTTAEMGSKQLGINITSGFFETQYNQFDVLILRHVLEHVPDPQDLLEKIYDSIKKDGLFILEGPNLDSISSRLFGKNVSWVSPPDHISFPNFISLIMACEKLGFTCIHKSSRRGRGISIFHQALLNSVGLMFGGKEKAKVNLGGINEKPNNQQLSSLKSAALKIVDFLDFLSSPMQPFLKQALLEEEMLIIFKKLEHHHHHH", "values": [{"measurement": "soluble on expression in E. coli", "result": "not soluble"}]}, {"sequence": "MKTVKHLLQEKGHTVVAIGPDDSVFNAMQKMAADNIGALLVMKDEKLVGILTERDFSRKSYLLDKPVKDTQVKEIMTRQVAYVDLNNTNEDCMALITEMRVRHLPVLDDGKVIGLLSIGDLVKDAISQHQFVINQLERYIYDTREI", "values": [{"measurement": "soluble on expression in E. coli", "result": "soluble"}]}, {"sequence": "MSDILLGKLATEFKTVKAMVEVYCHDHHGTKDALCSECRELLEYAEVRLDRCPYGEEKPTCNKCPIHCYKPEPKEQMRLVMRYSGPRMLLKHPILAVRHLLHEKREVPEKPAANASNRHKRINAERDT", "values": [{"measurement": "soluble on expression in E. coli", "result": "not soluble"}]}, {"sequence": "MTKKCPKCGNEFDAELTTCPTCGYSLTDTTVDKEEAETTSTNIDFETQENEEHEDQLNENIEWSELKDMSLGHVMELFGESPEEESNDDKKEESTEDNLIVSDSEDVSGLEASLQEGASEETHDSVEESIPATEETPTHSTEEKLATDEAVNLEETTEETTEETTTVEAETAEVSETVKSEEEALTEISGTEVISTTSEEEIFSQPPIEDQDVTPNETLQAYIQAHRADTEMSENPSEETAETQELENSGEAVLTQAETPTESISDSEEGLTSAASLEAPSDADATEGKVSDSGVIPPMNETGNAQPAPAPKKPSKKVVFVALAVVLLAGGSAWAYHDQTQKAAAQEAAALTKKTDTLKDELAAFYTTKEQVFIKPDMVTVSPEKLSKQVAEIKDSEEYSQLNKQIQTLKEKQQTIQQINQLFEAPIVNGNELKPAILAADQPISVKKLTGNDPFDQLMNQAIDQANQQYNQLQKAKKAVEVIYKDGKTTNQLNRDTYQAAKAEVDKVTSDKLKKELVKQVTTADQALTKVEEEQKRIAEEQAAAEQAKQAEEQAKQAAAAKKEDAKKEETAKTEANGYTAPNSDGVYTSPLYAPDAADIADSSNPAWTWAPGVKEKVLDTVIARGYVVPGGYSLEPAKIVNGEGYYNLYATNNQSKLLEGTTEKNVHMYLVTINAKTGWFKGNASRNAGQ", "values": [{"measurement": "soluble on expression in E. coli", "result": "not soluble"}]}, {"sequence": "DQLPGPVRVTVAGGGSARSAGESGFRRGGGRGARRGSDGGASDDDDDDGGGSGGGGGGRGFSTQGAGAKGGGSSGGSVQGIFHVKPYLEGRKCIDHGGEMVSRSAFERAGGSMMAKWYRSIKVLPEGVSLGKWLVSNGLP", "values": [{"measurement": "soluble on expression in E. coli", "result": "not soluble"}]}, {"sequence": "MSLKLTGEESDTLRKIVLEECLPNQQQNQNPSPCAEVKPNAGYVVLKDLNGPLQYLLMPTYRINGTESPLLTDPSTPNFFWLAWQARDFMSKKYGQPVPDRAVSLAINSRTGHTQNHFHIHISCIRPDVREQLDKNLANISSRWLPLPGGLRGHEYLARRVTESELVQRSPFMMLAEEVPEAREHMGSYGLAMVRQSDNSFVLLATQRNLLTLNRASAEEIQDHECEILREGHHHHHH", "values": [{"measurement": "soluble on expression in E. coli", "result": "soluble"}]}]}
